The labels stand for the following.
B1: Interleukin-1 receptor-associated kinase 4 (Mus musculus), Q8R4K2 (parent)
chain: MNKPLTPSTYIRNLNVGILRKLSDFIDPQEGWKKLAVAIKKPSGDDRYNQFHIRRFEALLQTGKSPTCELLFDWGTTNCTVGDLVDLLVQIELFAPATLLLPDAVPQTVKSLPPREAATVAQTHGPCQEKDRTSVMPMPKLEHSCEPPDSSSPDNRSVESSDTRFHSFSFHELKSITNNFDEQPASAGGNRMGEGGFGVVYKGCVNNTIVAVKKLGAMVEISTEELKQQFDQEIKVMATCQHENLVELLGFSSDSDNLCLVYAYMPNGSLLDRLSCLDGTPPLSWHTRCKVAQGTANGIRFLHENHHIHRDIKSANILLDKDFTAKISDFGLARASARLAQTVMTSRIVGTTAYMAPEALRGEITPKSDIYSFGVVLLELITGLAAVDENREPQLLLDIKEEIEDEEKTIEDYTDEKMSDADPASVEAMYSAASQCLHEKKNRRPDIAKVQQLLQEMSA
partner: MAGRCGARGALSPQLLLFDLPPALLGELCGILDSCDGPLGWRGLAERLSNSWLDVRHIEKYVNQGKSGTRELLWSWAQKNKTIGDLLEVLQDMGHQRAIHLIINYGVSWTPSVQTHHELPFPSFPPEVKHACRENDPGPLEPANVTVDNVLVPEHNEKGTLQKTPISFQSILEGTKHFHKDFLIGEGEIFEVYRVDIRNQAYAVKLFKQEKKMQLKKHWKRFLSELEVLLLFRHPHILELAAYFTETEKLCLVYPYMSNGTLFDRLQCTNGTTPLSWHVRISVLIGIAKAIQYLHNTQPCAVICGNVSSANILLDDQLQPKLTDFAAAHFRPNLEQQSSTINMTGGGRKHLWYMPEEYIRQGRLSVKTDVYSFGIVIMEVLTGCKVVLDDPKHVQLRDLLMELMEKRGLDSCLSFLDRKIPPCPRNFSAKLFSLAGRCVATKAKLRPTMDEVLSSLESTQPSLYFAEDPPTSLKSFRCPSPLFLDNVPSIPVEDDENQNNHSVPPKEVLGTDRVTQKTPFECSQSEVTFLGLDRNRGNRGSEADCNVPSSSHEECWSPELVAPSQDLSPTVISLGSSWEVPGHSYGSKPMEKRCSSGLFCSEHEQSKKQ
B2: Interleukin-1 receptor-associated kinase 3 (Mus musculus), Q8K4B2 (parent)
chain: B1 partner
partner: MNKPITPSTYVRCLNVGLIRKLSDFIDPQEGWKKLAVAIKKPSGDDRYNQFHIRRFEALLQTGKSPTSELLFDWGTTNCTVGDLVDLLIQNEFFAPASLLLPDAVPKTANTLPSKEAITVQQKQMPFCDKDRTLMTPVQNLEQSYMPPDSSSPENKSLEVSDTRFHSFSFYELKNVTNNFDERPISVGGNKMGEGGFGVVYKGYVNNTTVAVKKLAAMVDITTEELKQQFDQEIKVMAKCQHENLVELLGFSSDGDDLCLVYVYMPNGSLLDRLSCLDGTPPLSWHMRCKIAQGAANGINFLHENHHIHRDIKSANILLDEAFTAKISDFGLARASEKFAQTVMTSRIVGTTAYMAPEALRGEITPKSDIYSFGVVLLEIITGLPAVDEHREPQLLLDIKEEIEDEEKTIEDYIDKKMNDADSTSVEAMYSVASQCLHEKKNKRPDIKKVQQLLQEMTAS
B3: Interleukin-1 receptor-associated kinase 3 (Mus musculus), Q8K4B2 (parent)
chain: B1 partner
partner: B1 chain

Results on nine variants are retold here after IntAct's records for PubMed 23376919.

The variants in the first experiment derive from B1. Conditions: with irak3_mouse Irak3, Q8K4B2.
As for F25D, the “effect of a mutation on the interaction” value is listed as “decreasing interaction”.

In another experiment the parent is B2. Conditions: with irak4_human IRAK4, Q9NWZ3.
Take Q78G: the “effect of a mutation on the interaction” value is “decreasing interaction”.

Variants of B2 are the subject of the next experiment. The conditions noted are these: with irak4_human IRAK4, Q9NWZ3. The source holds these as a separate data set.
Take W74A: the “effect of a mutation on the interaction” value was “disrupting interaction”.

Variants of B2 are the subject of the next experiment. Conditions: with irak4_human IRAK4, Q9NWZ3. This is another data set of the same source.
Consider E71A;Q78G, for which the “effect of a mutation on the interaction” value was “decreasing interaction”.

The next experiment covers variants of B2. The conditions noted are these: with irak4_human IRAK4, Q9NWZ3. The source holds these as a separate data set.
Consider E71A, for which the “effect of a mutation on the interaction” value is “decreasing interaction”.

A further experiment covers variants of B3. The conditions noted are these: with irak4_mouse Irak4, Q8R4K2.
Turning to E71A;Q78G, the “effect of a mutation on the interaction” value is reported as “disrupting interaction”.

Another experiment covers variants of B3. The conditions noted are these: with irak4_mouse Irak4, Q8R4K2. This is another data set of the same source.
W74A: the “effect of a mutation on the interaction” value is listed as “disrupting interaction”.

In the next experiment the parent is B3. The conditions noted are these: with irak4_mouse Irak4, Q8R4K2. This is another data set of the same source.
Regarding E71A, the “effect of a mutation on the interaction” value is recorded as “decreasing interaction”.

Another experiment covers variants of B3. Conditions: with irak4_mouse Irak4, Q8R4K2. This is another data set of the same source.
In the case of Q78G, the “effect of a mutation on the interaction” value is given as “decreasing interaction”.
